# The DeepSol protein solubility set
# Test: soluble on expression in E. coli; label from the status in PepcDB or PDB records
row,Sequence,soluble on expression in E. coli
1,QTLDIQRGATLFNRACIACHDTGGNIIQPGATLFTKDLERNGVDTEEEIYRQTYFGKGRMPGFGEKCTPRGQCTFGPRLQDEEIKLLAEFVKFQADQGWPTVSTD,soluble
2,MRSFDFAPLHRASIGFDQIADLMDRVMSSDVGQPSYPPYNIEKTAADAYRISIAVAGFAETDLSVEVKENALVISARKAADEAERTFLHRGIATRAFERRFTLADHVRVTGASHENGMLHIDLKREIPEALKPRRIEIASVKSADTPERIEAKAVN,not soluble
3,MAAQESLHVKTPLRDSMALSKVAGTSVFLKMDSSQPSGSFKIRGIGHLCKMKAKQGCKHFVCSSAGNAGMATAYAARRLGLPATIVVPSTTPALTIERLKNEGATVEVVGEMLDEAIQLAKALEKNNPGWVYISPFDDPLIWEGHTSLVKELKETLSAKPGAIVLSVGGGGLLCGVVQGLREVGWEDVPIIAMETFGAHSFHAAVKEGKLVTLPKITSVAKALGVNTVGAQTLKLFYEHPIFSEVISDQEAVTAIEKFVDDEKILVEPACGAALAAVYSGVVCRLQAEARLQTPLASLVVIVCGGSNISLAQLQALKAQLGLNELLK,soluble
4,GPGSMELALEAMDAAEPPVSAAEKARRLALLRASSAEEARSLVALHDAAALAELRAAIMDSFPDERHDPEMSVHLDQIIWGRCPIRIDVAGAWTDTPPYAILSGGSVINVAVELNGQPPVQVYVRVREDPIIMMHSIDSGEQLSVSSFDEIRTYATMQNPFSIPKAALALCGFLPEFCATEYATLREQLAARFGGHGLEISLFVAIPTGSGLGTSSIVAGTVLRSLAEFCKLPWDNHDVCRRVLLIEQMLTAGGGWQDQYGGLFEGLKLVQCVPGLPCLPTVRWMPDSVYTDPRFAACHLLYYTGITRMAKGILGEIVRDVLLNNGATLQLLREMGGPTTAAMYDAITTGNYKGYARLVHRTWEQKKRLDDGVCNPTVQSIVDIVEPYVWGLTLPGAGGGGYMYMCAKDEACARRIRELLTANPPNGNARFVEMSVSASGLQISRS,not soluble
5,MGSDKIHHHHHHMNSTMQVLVIGGTGTLGRQIAKNAIDAGHKVRCMVRKPKAASFLQEWGCELTRGNLLNKEDIEYALDGIDAVIDAATSRPDDPRSVYETDWDGKLNLFNACEEKNVKRVVFLSLLAAEKYREIPLMDIKYCTEELLVSSSLDYTILQGVAFMQGAIGQFAIPILNNEPVWISGNPTDIAYMNTQDIARFAVAALDRPQTIKGRFPIVGPKAWSAKGLVDLCEKFSEKRARVLKVSPTIISIAQSVVSFFEPTLNVAERLSFSELSGSGGKLDAPMEDTYTAFGLNPADTTTMEGYIKEYYGVILKRLKDIGVDLDIEEKKKFPI,not soluble
6,MEIVCEDFQKALTKIKLLRENANIIEETVQRSVREIVQNVRESRDEALSFYTKKFDGVEIKDVRVSEEEIKQASMFVESSFLEALQEAKKNIISYHEKQKRQSMFDCTSKGIIRGQIIRPLENIGVYVPGGTASYPSSVLMNVLPAKLAGVKKIVMVTPPRAGGIDPHILVAASLAGVDEIYMIGGAQAIAALAYGTESIPKVDKIVGPGNLYVALAKREVYGIVNIDMIAGPSEIVVIADETGNAKYIAADLLSQAEHDERATAICITTNIELAKEVEKEIERQLETLPRSEIARESINRNGAIFIVPSIDEALQLSNEIAPEHLELHIKEPMNALAYVKHAGSIFLGPYAPEPLGDYLAGPNHVLPTSGTARFFSPLSVDDFVKKSSFLSYTEGALRDVKHHIVELANKEGLHAHARAIQIRFGEEE,not soluble
7,MKNNADFAYQAVYRYLVQLVDQGQGESALKMPSLRHLAQRLRVSISTVQSAYSLLEKEGRIYSVAKSGYYSAPRSAAIEVRARFDSDGDLLQMHHYYARRSGMSLLSSDAPTLLQAQESPLLAMEHELVRNYPRPRQADFQPFGELQLRIALAARYTRGAEHCWHADNVHVAPDVHGAFKAVIETLGLRGGAVLVESPCAWGLLRLLRSFDIRVIELPLDETGSLDPIQLERLLLENNVGLVVLPSMFNSVRGSVRPLCNSRAVAKVLDRHQVWVLENDSHGALQFAADQTCLRHLIDPQRLIIIGTFEKCLGPEAPYGYLLCKNLDARWQAYFLLRAFELPPTRQRAIARLCSSGRLDKHLAQLREALAGHLQLMMQHLNEHTDGLLRYEVPEGGCGIWARSVYPVDMRQVFNRLLAKRIVITPGELFSLESLYGQHLWISYAIDWSRDPGELFSALAQALHLARQP,not soluble
8,MAKRPTETERCIESLIAIFQKHAGRDGNNTKISKTEFLIFMNTELAAFTQNQKDPGVLDRMMKKLDLDSDGQLDFQEFLNLIGGLAIACHDSFIKSTQK,soluble
9,MSVHPAVQSLCEQPIDTIGLTAVSAVASALGDVSTATDLIQRPEQEKALHDLLKKCMSILNNSGKNSALRLACLECLYVLSQPPIPAFRTGLLCNTLNSVNSSVEEMLARTGPSEAESSSSAREMFTVLVFRFTNYDTKVARLLLQHMCDGDVGTMMQTLLRVMVQHCETCEWPLLQAALQSLYELTVPTTYYATGKDGAAEPSFDSAATATGSSLQSFTVESFQDRIAVLLTEMRNHRLLEKLLASLRLSWHESTHNRSPPSLAQGCAESVALGALGCPDVAHTVTSASAEQQMELLNWLSAFTLLCRALDNMVEFCRDAKLAREVRARLLSDPSCHDWLASAAVPAVIAAIQVWMSDDGASATPAAISDGSAGPFATAKVKLSLLTAAVTLLRLLRFALYKPAMGFTAALLSSMGCLAAQVQRGEPHLRLQYGGMQVMLLTVECLVNMNAVAVTSPVNLSESYRGLLRTIAADKTRCTLSNCSSDVSSDHGAVAERQPDALMPVAEWFILCVREEESPFCDIDSGNASVALLHECFASEEARLQDAADRVADLAALESQLAMMQNFLLLMTLTELLSGLPDGGLERLTQPGPRRRNSATDAEQKPPNNSDSSSRRCKLSKKKVSHHPAAYVCDLTGKLMREPVVLKGGHRFEFDALQNVILQVGHVDPISGESIDEDVEVNIPLQQEIAAYRVKRASEKGGS,not soluble
10,MGSDKIHHHHHHMDLFSAMRIFIRVVERGSMSAAARDLGIGQPAVSERIEKLEAHLGTRLLRRNTRNMSLTQSGNVFYERSKTAVQAAEHALSVNEENQGLQGKIRIAAPYSAGESLLMPALLQLQNEHPELQVDVIFNDRVINPVTEGVDLSLRLGDVSEGFFVARPLGTVRRVLLASPALLAKMGHPDTPDALTDYPFAAVSGVFASNRIQLVASEDQLINVPVNIQFQSTHWRSVLSWLLAGHAIGVLQSPVCRKEIADGALIPLLSHYPIPPFSAWLLHPPAGMMSYETRICASLLEGYIRDLLLEPAG,not soluble
11,STKLLYLKPIQTGFPSDSDSRFVFSKLDSLSLRRQIPISISNSVLHSSLPAAKSLGLNVEVSESGMCSLNFRDEKTVTGAPELLCKTLYAWEAAISPHLAAERENATVEDSVVLQMIEKCLKEEMECGVKSEKSDLLCLVETAGGVASPGPSGTLQCDLYRPFRLPGILVGDGRLGGISGTIAAYESLKLRGYDIAAVVFEDHGLVNEVPLTSYLRNK,soluble
12,MSLATIATLRVLLLAIPDDAAPESDLNLVSWTILNGLRRECERRGIRIVPFVSTGRRIDGAQVRQMALAERADGIVVLNDDQPELIRSLASPDMPVVIVNGEDPAMLVDTVTPENRFGARLGIEHLLALGHRRILHLTWKGRTTIQRRYDGFSDAYLAAQLPVPDNMVVEAEGYEPRHGEAAINALLDRDATVKGATAVFCAADNMALGCLKALADRDIRVPEAISVLGFDDIVPGEFSRPPLSTVSVPTDKLGAAALALIEQRLIANDPQRPAHRLELGCHLVLRGSEGHHHHHH,not soluble
13,MYWLFKSEPFKWSWEMQKARGEKGEQWDGVRNYQARNNMRAMKLGDKGFFYHSNEGLEVVGIVEVCALAHPDSTTDDPRWECVDIKAVRDMPKPVTLKDVKANPRLQDMSLVTSMRLSVQPVTEDEWIEVCRMGGLDANDILEHHHHHH,soluble
14,MSLSVFDLFKIGIGPSSSHTVGPMRAAARFAEGLRREGLLEATASIKVELYGSLGATGKGHGSDKAVLLGLEGEQPDTVDTAAIPARLDAIRSSGELRLLGERPIRFVEKEHLALIRKPLAYHPNGMIFRAFDAAGLQVRSREYYSVGGGFVVDDEAAGLDRIVEDRTPLAFPFKTARQLLDHCAREGLSISQLMAENEKAWRPAEETRTGLLRIWQVMQDCVEAGCRNEGIMPGGLKVRRRAAALHRQLCQRPEAGLRDALSVLDWVNLYALAVNEENASGGRVVTAPTNGAAGIIPAVLHYYARFIPGADDDGVVRFLLTAAAIGILYKENASISGAEVGCQGEVGVACSMAAGALCEVLGGSVQQVENAAEIGMEHNLGLTCDPVGGLVQVPCIERNAMASVKAINAARMALRGDGQHFISLDKVIRTMRQTGADMKSKYKETARGGLAVNIIEC,not soluble
15,AHHHHHHGSINNAQPPIYEEGLEELMQELKGKYHATNDYRWAILNSDITFITVGTPSKPDGSIDLTHVKQAAKSIGKALRDKEDYHVVVVKSTVLPGTTEEVVKPILEKHSGKKAFKDFGLAMNPEFLREGVALKDFLNPDRIVLGVQDEKTKKILEELYEPINAPKLIVDIKTAEMIKYASNAFLATKISFANEIGNICKKLGIDSWKVFEGVGLDHRISPHFFKTGIGFGGSCFPKDVKALIKKAEEIGENPLILKAVIEVNERQPLKMIELLKKHIPELKGRKIGVLGLAFKPNTDDVRETRAYIIIKKLLEEGASVIAYDPKAMENFKRFYPDVSGGIEYATSPEDVLKSTEIILIVTEWPDFEELDYSGKIVIDGRRIKAAERTARIYEGVCW,soluble
16,GMEKLNFGIPEWAFEFHGHKCPYMPMGYRAGSYALKIAGLEKEKDHRTYLLSEMSPEDMNGCFNDGAQAATGCTYGKGLFSLLGYGKLALILYRPGRKAIRVHVRNSFMDELSTRASDFFRYRKQGYEPSEIPAGAIDPVLEWISSLEDEEIFEYREIDGFTFEPVKKNGAKVRCDVCGEYTYEADAKLLNGKPVCKPDYYGKK,soluble
17,ASNITRINEIIEIAVNNKRKVCLLGKSMDVNVNISRKIGLMDIDSNDIVEVRDIKNYPDRSILILCTGSQGEDSAALNTMARGKHNWVSLKSTDTIIMSSNPIPGNYAAVENLLNELSKYGVTIFENSPNMKLHASGHATQQELQLMLNLVFPRYLIPIHGEYKMMRTIKNIAQECGINGDDVGLLANGQVMYLIDGKLYYSGEVINADPIYIESRNSSPDLARVIKQRQILSREGMFAVIVVFDKNNNILGMPTLITRGCFFALDSSPLMTKITHSIKRGLENVIQNKRFNTREQMIKELKRVCKETVSYFIWKNKSRNPLISTVLSWV,soluble
18,MKKLLLTLVSSSLLVACSQRTESMEDKSIAPCGDKPNCISTLDEREEFTVKPFILTSSANMKAISHIASQLKGAKLVDINNDYARIECTSSVFRFVDDLELRIYGNTLIVRSESRTGYSDFGVNRKRVEKLRTLLEEKGLISQLEHHHHHH,not soluble
19,MKKTIYKCVLPLLICILLTGCWDRTEINDIAFVVSSAIDKKKDQYRVAMQIPLVGQLGGQTGGGGGTAGSKTWYVDSASGTTIREANNKLQTSLSRTINTSHRRTVIIGEDMARDGVAPVFDILTRNPQNRLTALILVSRGEARDILNTDVQLEQFPAEMIRELAIIATSRPVFLSRFMSDLVEIGSDPYAPVISASKTKPGGKGKSNLKIDGLAIFKKDRLMDIFKDEHMTAALMLLNQARQPEFIVDLPNQMGQASIQLQKSNASFHAAEKNGKLSMTIEIRAKGIIMENQSTYETRENDQYYIIQKALNRTIKKDVISTVHRLQKLKADPAGFQDRTIRSTATTKNLLKKEWEEVYKDMEVHVVPIVTIEQGGVLYKTISH,not soluble
